From paper PMC9124786, “A One-Step Electrochemical Aptasensor Based on Signal Amplification of Metallo Nanoenzyme Particles for Vascular Endothelial Growth Factor”

Molecular target: VEGF165 (VEGF A165) (UniProt P15692-4 27-191)
Assay: electrochemical impedance spectroscopy (aptasensor); 10 pg/ml-1 ug/ml VEGF, 60 min; LOD 8.2 pg/ml (not a Kd); VEGF incubated 60 min (37 C in the time optimisation) on BSA-blocked aptamer/CME NP electrode, water wash; EIS in 0.1 M PBS pH 7.4 with 5 mM [Fe(CN)6]3-/4-
Conditions: protein: commercial; chain copies: 2; hairpin

Chain of VEGF165 (VEGF A165) (P15692 other isoform, or with tags, fused parts or gaps): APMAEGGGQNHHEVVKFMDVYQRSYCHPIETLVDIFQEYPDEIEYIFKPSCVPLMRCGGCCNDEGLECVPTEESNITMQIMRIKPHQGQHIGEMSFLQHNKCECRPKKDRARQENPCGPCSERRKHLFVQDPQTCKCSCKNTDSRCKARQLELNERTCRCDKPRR

AAAAAAAAAACCGTCTTCCAGACAAGAGTGCAGGGAAAAAGAAGACGG (structured_DNA, 5' carboxylic acid) [VEGF aptamer with 5' A10 spacer]
binding result: binds
